PMC2635704

Target: BjVIII, myotoxic Lys49-PLA2 from Bothrops jararacussu venom (Bothrops jararacussu)
Experiment: tricine SDS-PAGE under non-reducing conditions

Substance: BjVIII, myotoxic Lys49-PLA2 from Bothrops jararacussu venom (natural protein)
- stoichiometry N: 2
